Patent US12215133

Target: T1, GIP receptor
T1 sequence (P48546 whole entry, species assumed, looked up): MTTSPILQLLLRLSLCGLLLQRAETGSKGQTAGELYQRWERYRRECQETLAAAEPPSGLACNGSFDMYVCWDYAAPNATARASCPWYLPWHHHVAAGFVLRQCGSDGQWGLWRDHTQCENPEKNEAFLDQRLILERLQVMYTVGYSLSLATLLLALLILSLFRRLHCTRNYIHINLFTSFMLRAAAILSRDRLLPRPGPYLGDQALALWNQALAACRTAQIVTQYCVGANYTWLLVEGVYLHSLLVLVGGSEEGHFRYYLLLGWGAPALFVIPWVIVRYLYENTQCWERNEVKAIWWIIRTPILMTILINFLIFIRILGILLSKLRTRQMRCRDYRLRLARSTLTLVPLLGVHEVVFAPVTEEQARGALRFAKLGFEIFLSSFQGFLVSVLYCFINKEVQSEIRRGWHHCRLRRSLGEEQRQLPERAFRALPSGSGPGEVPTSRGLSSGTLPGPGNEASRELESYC
Assay: cell-based or functional assay

Row | Substance | cAMP experimental result of GIP receptor, EC50 [nM]
1 | BG121 (LY3298176) (peptide) | 1.79
2 | BGM134 (Semaglutide) (peptide) | > 50
